The source of these data is paper PMC7005798, “Increased circulating levels of Factor H-Related Protein 4 are strongly associated with age-related macular degeneration” (Nature Communications, 2020).

Test [1] has as its target T1, C3b (human, UniProt P01024 23-667; P01024 749-1663).
T1 construct: complement C3 beta chain, human; Two disulfide-linked chains cut from the C3 precursor; also called human C3b; complement C3b; source: bought: VWR International, catalogue no; 204860 (purified)
The test is described as follows: ELISA; solid-phase binding assay: C3b adsorbed on microtiter wells (1 ug per well); 100 nM FH or FHL-1 mixed with rising FHR-4 up to 500 nM, 4 h at room temperature in 20 mM HEPES, 130 mM NaCl, 0.05% Tween-20, pH 7.3; bound FH or FHL-1 detected with the OX23 antibody. Conditions: both partners purified. In general terms: An ELISA detects its analyte on a solid surface through an enzyme-linked reagent.

In test [2] the target is T1, C3b. The test is described as follows: cell-based or functional assay.

T1 sequence (P01024 23-667, chain 1 of 2): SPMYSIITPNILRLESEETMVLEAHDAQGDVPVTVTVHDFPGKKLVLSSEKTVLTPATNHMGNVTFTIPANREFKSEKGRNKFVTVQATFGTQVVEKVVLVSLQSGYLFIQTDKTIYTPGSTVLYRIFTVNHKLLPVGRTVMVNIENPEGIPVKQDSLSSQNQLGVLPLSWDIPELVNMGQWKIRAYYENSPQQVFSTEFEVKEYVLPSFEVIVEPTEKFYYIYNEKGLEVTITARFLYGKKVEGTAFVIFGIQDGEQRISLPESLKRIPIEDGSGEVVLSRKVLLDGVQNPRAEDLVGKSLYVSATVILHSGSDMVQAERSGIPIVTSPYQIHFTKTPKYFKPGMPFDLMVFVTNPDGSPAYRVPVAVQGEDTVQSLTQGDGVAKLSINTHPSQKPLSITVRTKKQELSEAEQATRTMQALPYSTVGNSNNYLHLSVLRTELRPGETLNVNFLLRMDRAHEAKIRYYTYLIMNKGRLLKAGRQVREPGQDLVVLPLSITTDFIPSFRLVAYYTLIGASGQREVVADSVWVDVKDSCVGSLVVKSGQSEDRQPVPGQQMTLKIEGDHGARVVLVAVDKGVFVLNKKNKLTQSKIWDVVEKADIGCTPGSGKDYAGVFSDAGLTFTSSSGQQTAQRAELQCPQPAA
T1 sequence (P01024 749-1663, chain 2 of 2): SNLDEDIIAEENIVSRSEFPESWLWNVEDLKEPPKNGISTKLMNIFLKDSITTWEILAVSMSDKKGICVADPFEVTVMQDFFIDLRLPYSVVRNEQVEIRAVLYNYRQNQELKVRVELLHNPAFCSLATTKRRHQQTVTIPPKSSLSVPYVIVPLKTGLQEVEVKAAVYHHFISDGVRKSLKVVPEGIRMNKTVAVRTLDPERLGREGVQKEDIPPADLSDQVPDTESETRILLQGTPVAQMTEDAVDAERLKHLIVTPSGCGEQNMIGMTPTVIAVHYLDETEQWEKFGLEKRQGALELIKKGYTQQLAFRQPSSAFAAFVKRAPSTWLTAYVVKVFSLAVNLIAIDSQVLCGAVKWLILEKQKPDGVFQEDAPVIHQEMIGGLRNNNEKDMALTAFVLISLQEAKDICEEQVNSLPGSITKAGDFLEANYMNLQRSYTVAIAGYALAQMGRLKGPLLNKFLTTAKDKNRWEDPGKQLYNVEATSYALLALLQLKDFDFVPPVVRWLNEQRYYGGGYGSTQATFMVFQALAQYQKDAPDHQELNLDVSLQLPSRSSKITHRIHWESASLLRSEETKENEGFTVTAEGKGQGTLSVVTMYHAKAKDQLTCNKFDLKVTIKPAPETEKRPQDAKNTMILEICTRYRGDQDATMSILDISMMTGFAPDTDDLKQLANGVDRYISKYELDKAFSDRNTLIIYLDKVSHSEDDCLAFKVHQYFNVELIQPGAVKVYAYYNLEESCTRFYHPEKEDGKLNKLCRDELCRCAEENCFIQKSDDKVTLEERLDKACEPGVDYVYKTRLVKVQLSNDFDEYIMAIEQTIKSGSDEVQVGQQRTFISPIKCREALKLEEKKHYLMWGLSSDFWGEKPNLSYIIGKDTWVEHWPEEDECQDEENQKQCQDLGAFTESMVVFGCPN

B1: complement factor H (FH) (natural protein, human, UniProt P08603 19-1231, looked up)
chain: EDCNELPPRRNTEILTGSWSDQTYPEGTQAIYKCRPGYRSLGNVIMVCRKGEWVALNPLRKCQKRPCGHPGDTPFGTFTLTGGNVFEYGVKAVYTCNEGYQLLGEINYRECDTDGWTNDIPICEVVKCLPVTAPENGKIVSSAMEPDREYHFGQAVRFVCNSGYKIEGDEEMHCSDDGFWSKEKPKCVEISCKSPDVINGSPISQKIIYKENERFQYKCNMGYEYSERGDAVCTESGWRPLPSCEEKSCDNPYIPNGDYSPLRIKHRTGDEITYQCRNGFYPATRGNTAKCTSTGWIPAPRCTLKPCDYPDIKHGGLYHENMRRPYFPVAVGKYYSYYCDEHFETPSGSYWDHIHCTQDGWSPAVPCLRKCYFPYLENGYNQNYGRKFVQGKSIDVACHPGYALPKAQTTVTCMENGWSPTPRCIRVKTCSKSSIDIENGFISESQYTYALKEKAKYQCKLGYVTADGETSGSITCGKDGWSAQPTCIKSCDIPVFMNARTKNDFTWFKLNDTLDYECHDGYESNTGSTTGSIVCGYNGWSDLPICYERECELPKIDVHLVPDRKKDQYKVGEVLKFSCKPGFTIVGPNSVQCYHFGLSPDLPICKEQVQSCGPPPELLNGNVKEKTKEEYGHSEVVEYYCNPRFLMKGPNKIQCVDGEWTTLPVCIVEESTCGDIPELEHGWAQLSSPPYYYGDSVEFNCSESFTMIGHRSITCIHGVWTQLPQCVAIDKLKKCKSSNLIILEEHLKNKKEFDHNSNIRYRCRGKEGWIHTVCINGRWDPEVNCSMAQIQLCPPPPQIPNSHNMTTTLNYRDGEKVSVLCQENYLIQEGEEITCKDGRWQSIPLCVEKIPCSQPPQIEHGTINSSRSSQESYAHGTKLSYTCEGGFRISEENETTCYMGKWSSPPQCEGLPCKSPPEISHGVVAHMSDSYQYGEEVTYKCFEGFGIDGPAIAKCLGEKWSHPPSCIKTDCLSLPSFENAIPMGEKKDVYKAGEQVTYTCATYYKMDGASNVTCINSRWTGRPTCRDTSCVNPPTVQNAYIVSRQMSKYPSGERVRYQCRSPYEMFGDEEVMCLNGNWTEPPQCKDSTGKCGPPPPIDNGDITSFPLSVYAPASSVEYQCQNLYQLEGNKRITCRNGQWSEPPKCLHPCVISREIMENYNIALRWTAKQKLYSRTGESVEFVCKRGYRLSSRSHTLRTTCWDGKLEYPTCAKR
notes: complement factor H, commercially available purified protein; also called CFH; source: bought: Sigma-Aldrich, catalogue no; C5813 (purified)
As for B1, the binding result with C3b [1] is on record as “binds”.

B2: Recombinant Factor H-Related Protein 4 (FHR-4), FHR-4B variant (natural protein, human, UniProt Q92496-3 20-331, looked up)
chain: EVKPCDFPEIQHGGLYYKSLRRLYFPAAAGQSYSYYCDQNFVTPSGSYWDYIHCTQDGWSPTVPCLRTCSKSDIEIENGFISESSSIYILNKEIQYKCKPGYATADGNSSGSITCLQNGWSAQPICIKFCDMPVFENSRAKSNGMRFKLHDTLDYECYDGYEISYGNTTGSIVCGEDGWSHFPTCYNSSEKCGPPPPISNGDTTSFLLKVYVPQSRVEYQCQSYYELQGSNYVTCSNGEWSEPPRCIHPCIITEENMNKNNIQLKGKSDIKYYAKTGDTIEFMCKLGYNANTSVLSFQAVCREGIVEYPRCE
For the molecule B2, the “inhibition of FHL-1/FI-mediated C3b α-chain cleavage in the fluid phase (blocks FHL-1 with C3b); FHR-4 up to a 5-fold molar excess over FHL-1, dose-dependent” value with C3b [2] was 2.5 fold molar excess of FHR-4 over FHL-1 for 50% reduction.
